Measured values taken from patent publication US20220154156A1, “PROTEINS AND METHODS FOR DISRUPTING BACTERIAL COMMUNICATION” (REGENTS OF THE UNIVERSITY OF MINNESOTA, priority 2019, published 2022).

Legend:
[1] = tested on: Xanthomonas translucens pv. undulosa LMG892; test: Wheat leaf infection; type: in vivo; conditions: single spraying of 1 mL, 10 mg/mL
Experimental: FIG. 30A-30F show control of plant infections by a single spraying of 1 mL of lactonase solution (10 mg/mL) on plant leaves and crop. (A) and (B) Soft rot potato assay.
Specifically, we could establish infection systems for corn, wheat, and barley plants, and a crop infection system for potato (tubers and leaves).

[2] = tested on: biofilm of complex soil microbial community; test: Biofilm microbial community analysis (16S, MiSeq); type: cell-based
Experimental: DNA extractions were carried out on biofilms. Submerged wells from the strip-well plates were drained of excess cells/water. Biofilm was scraped from the polypropylene well and put into Powerbead® tubes for DNA extraction (MoBio Powersoil® DNA Extraction Kit). Purified DNA samples were submitted to the University of Minnesota's Genomics Center for 16S rRNA sequencing. Using the Genomics Center platform, each sample underwent amplification, indexing, normalization, pooling, size selection, and final QC for sequencing. The V4 region of the 16s rRNA gene was amplified using primer 515f (5′-GTGCCAGCMGCCGCGGTAA-3′ (SEQ ID NO:14)). After the library preparation steps, it was confirmed all samples passed QC and were submitted for sequencing.
All samples were processed using Mothur v1.35.1. For each sample, 1,250 sequences were used for final analyses. […] Analysis of similarity (ANOSIM) and analysis of molecular variances (AMOVA) were used to evaluate the beta diversity (community composition) among samples using Bray-Curtis dissimilarity matrices (BC) (Bray & Curtis 1957; Clarke 1993). Ordination of Bray-Curtis matrices was performed using principal coordinate analysis (PCoA) to further analyze diversity of sample days throughout the tank (Anderson & Willis 2003). […] All of alpha values evaluated at α=0.05.

[3] = tested on: corrosion tubercles on steel coupons; test: Biocorrosion of coated steel coupons in Duluth-Superior Harbor water, 8 weeks; parameters: concentration or dose not given beside the values; conditions: silica gel coating, two months in DSH water
Experimental: The steel coupons were washed with soap water, lightly brushed for a few seconds with a test tube brush, and then rinsed with Milli-Q water to remove any loose material. Each coupon was designated with a unique number and weighed before being randomly assigned to a specific experimental treatment.
Each compound or enzyme was added to 5 ml of the silica gel matrix to develop different coating treatments. These coatings were applied by dipping coupons into the appropriate gel mixture for 1 minute, and then the coating on the coupon surface was air-dried at room temperature for 2 hours.
Six treatments and three controls were investigated for corrosion rate and changes in bacterial communities (Table 10). Each treatment or control contained three replicate steel coupons. After the triplicate steel coupons were coated with each biochemical, enzyme or bacterial treatment, they were incubated in experimental microcosms constructed from 10-gallon glass aquaria (Aqueon Glass, 50.8 cm×25.4 cm×30.5 cm) (FIG. 24). Each microcosm was equipped with an aquarium pump (Aquarium Systems Mini-Jet 404) to constantly circulate the water (˜2 L hr−1), and covered with a piece of acrylic with one corner cut out to allow gas exchange. The coupons were hold with plastic holders and immersed in water taken from the DSH for 8 weeks and then recovered for analyses.
The coupons in each treatment was photographed by the end of the experiment. Biocorrosion was evaluated by the number and coverage of corrosion tubercles, and also by imaging of coupon surfaces with an environmental scanning electron microscope (ESEM). The coupon images were captured with DSLR camera immediately after being removed from the harbor water, and then tubercle numbers and total area in digital images were measured using the analyze menu within ImageJ software (NIH, Bethesda, Md., USA). Surface roughness measurements were also made after the exposed coupons were cleaned with ASTM G1-90 iron and steel chemical cleaning procedure (2 min in 37% HCl, 50 g/L SnCl2). A Hitachi TM-3030 ESEM was used to view details of the cleaned coupon surface and the 3D-View software was used to generate surface roughness measurements (SRa). Statistics analysis (T-tests) of the tubercle numbers, coverage and surface roughness were performed using Microsoft Excel software.

[4] = tested on: Clavibacter michiganensis subsp. Nebraskensis; test: Corn infection assay; type: in vivo; conditions: lactonase spray
Experimental: FIG. 31 show control of plant infections by a single spraying of 1 mL of lactonase solution (10 mg/mL) on corn leaves. The Viking maize seed (40-30UP) were grown in Euro pot (diameter 8 inch) with sterilized soil mixture (50 standard soil/50 Germinating Mix) in a green house under diurnal conditions with 16 hours lights at 22° C. and 8 hours dark at 18° C. Plant leaves were infected with Clabibacter michiganensis subsp. nebraskensis by dipping the clipped leaf into cell suspension ([…]). Shown are duplicates plants for the control treatment (left) and lactonase treatment (right).
Moreover, we specifically established a corn infection assay using the pathogen Clavibacter michiganensis subsp. Nebraskensis.

[5] = tested on: corrosion tubercles on steel coupons; test: Dose-response of lactonase for inhibiting biocorrosion, 7 weeks
Experimental: Five treatments with lactonase enzyme and two controls of the steel coupons were investigated for enzyme activity and corrosion rate. Each treatment or control contained three replicate steel coupons. They were exposed in lake water in lab microcosm for a period of 7 weeks. Lactonase enzyme silica gel coated testing coupon are prepared as described before, except the coupons were dipped and dried twice and covered with 2 layers of the same coating to ensure the intactness of the coating. The enzyme concentrations used in this experiment were 100, 200, 500, 1000 μg/ml. Also 100 μg/ml equivalent activity lactonase raw extract was tested to compare the effectiveness of raw enzyme extract to the purified lactonase enzyme.
After 7 weeks of exposure, coupons were retrieved and analyzed. The coupons in each treatment was photographed by the end of the experiment. Biocorrosion was evaluated by quantities and coverage of corrosion tubercle. Surface roughness measurement were also made with procedure described above.

[6] = tested on: suspension soil microbial community; test: Effect of lactonase on suspension soil community; type: cell-based; conditions: 0.5 mg/mL, days 3 and 7
Experimental: Inoculum were prepared by re-suspending about 5 grams of soil (taken outside GortnerLab building, Saint Paul Campus, Saint Paul, Minn., USA) in 40 mL of water. After a homogenous mixture was achieved, the suspension was lightly centrifuged (5 min, 500×g) and 200 uL of the cloudy supernatant was added to 30 mL of LB media and allowed to grow overnight. This inoculum was used to inoculate 15× diluted LB media (in water) cultures. […] Samples were collected for DNA extraction after 3 and 7 days.
All samples were processed using Mothur v1.35.1. For each sample, 1,250 sequences were used for final analyses. […] Analysis of similarity (ANOSIM) and analysis of molecular variances (AMOVA) were used to evaluate the beta diversity (community composition) among samples using Bray-Curtis dissimilarity matrices (BC) (Bray & Curtis 1957; Clarke 1993). Ordination of Bray-Curtis matrices was performed using principal coordinate analysis (PCoA) to further analyze diversity of sample days throughout the tank (Anderson & Willis 2003). To visualize the distribution of taxonomies and diversities in microbial communities among the samples, R v3.3.1 was used to conduct the normalized relative abundance and OTUs at genus level^45. All of alpha values evaluated at α=0.05.

[7] = all concentrations 100-1000 μg/ml, 7 weeks, p<0.05

B1: SsoPox W263I: improved variant of the hyperthermostable lactonase SsoPox from Sulfolobus solfataricus, exhibiting higher catalytic rates (protein, UniProt Q97VT7 1-314, looked up, variant W263I)
Aryldialkylphosphatase: MRIPLVGKDSIESKDIGFTLIHEHLRVFSEAVRQQWPHLYNEDEEFRNAVNEVKRAMQFGVKTIVDPTVMGLGRDIRFMEKVVKATGINLVAGTGIYIYIDLPFYFLNRSIDEIADLFIHDIKEGIQGTLNKAGFVKIAADEPGITKDVEKVIRAAAIANKETKVPIITHSNAHNNTGLEQQRILTEEGVDPGKILIGHLGDTDNIDYIKKIADKGSFIGLDRYGLDLFLPVDKRNETTLRLIKDGYSDKIMISHDYCCTIDIGTAKPEYKPKLAPRWSITLIFEDTIPFLKRNGVNEEVIATIFKENPKKFFS
With B1 the “leaf spots on wheat leaves” value [1] was “Absence of leaf spots”, the “Aeromonas share of the biofilm community” value ([2]; day 7, lactonase 1×) was 79.68% and the “Aeromonas share of the biofilm community” value ([2]; day 7, lactonase 2×) was 42.16%. The “reduction of the coverage of corrosion tubercles” value [3] was 50%, the “reduction of the number (formation) of corrosion tubercles” value [3] was 50% and the “symptoms of infection in corn plants” value [4] was “protected the plant from showing any symptoms of infection”. For the same molecule, the “reduction of number of corrosion tubercles” value [5, 7] was > 38%, the “reduction of percent coverage of corrosion tubercles” value [5, 7] was > 41% and the “reduction of surface roughness” value ([5]; all treatments) was “not statistically significant”. The “optimal concentration for coating application” value ([5]; highest reduction of corrosion tubercles) was 200 µg/mL and the “composition of suspension community vs inactive variant” value [6] was “communities are significantly different”.
